A short description of the data set: IP and western blot in MSC-T. As to conditions: glycan lost; control: wild-type GPNMB (MSC-T/OEG).

B1: GPNMB (Glycoprotein non-metastatic melanoma protein B): N249Q (protein)
parent chain: MESLCGVLGFLLLAAGLPLQAAKRFRDVLGHEQYPDHMREHNQLRGWSSDENEWDEHLYPVWRRGDGRWKDSWEGGRVQAVLTSDSPALVGSNITFVVNLVFPRCQKEDANGNIVYEKNCRNDLGLTSDLHVYNWTAGADDGDWEDGTSRSQHLRFPDRRPFPRPHGWKKWSFVYVFHTLGQYFQKLGRCSARVSINTVNLTAGPQVMEVTVFRRYGRAYIPISKVKDVYVITDQIPVFVTMSQKNDRNLSDEIFLRDLPIVFDVLIHDPSHFLNDSAISYKWNFGDNTGLFVSNNHTLNHTYVLNGTFNLNLTVQTAVPGPCPPPSPSTPPPPSTPPSPPPSPLPTLSTPSPSLMPTGYKSMELSDISNENCRINRYGYFRATITIVEGILEVSIMQIADVPMPTPQPANSLMDFTVTCKGATPMEACTIISDPTCQIAQNRVCSPVAVDGLCLLSVRRAFNGSGTYCVNFTLGDDASLALTSTLISIPGKDPDSPLRAVNGVLISIGCLAVLVTMVTILLYKKHKAYKPIGNCPRNTVKGKGLSVLLSHAKAPFFRGDQEKDPLLQDKPRTL
Take B1: the expression_or_secretion entry is listed as “decreases”.

These data come from PMC11756183.
